Results from patent publication US20260210939A1, “MODIFIED OLFACTORY RECEPTORS” (GIVAUDAN SA, priority 2022, published 2026).
Where two headings read alike, the source gives them in different places.

Tests used:
[1] = molecular target: T1, OR5B12 (Homo sapiens, UniProt Q96R08, C141R); test: CRE-luciferase assay, HEK293T cells expressing OR5B12 (wild-type / modified C-terminus); assay type: cell-based; conditions: for % of the activation by the optimized sequence RNKEVKDALKRLLKRKCC: OR5B12 variant; for Fold-improvement potency / Fold-improvement threshold: changed C-term. vs wild-type
T1 construct: Improved functional expression of modified OR-genes containing the truncated, optimized C-terminus; expressed in transfected cells; host or cells: HEK293T stably expressing human RTP1S(V227I) and RTP2(L220R)
T1 sequence (Q96R08 with tags, fused parts or gaps C141R): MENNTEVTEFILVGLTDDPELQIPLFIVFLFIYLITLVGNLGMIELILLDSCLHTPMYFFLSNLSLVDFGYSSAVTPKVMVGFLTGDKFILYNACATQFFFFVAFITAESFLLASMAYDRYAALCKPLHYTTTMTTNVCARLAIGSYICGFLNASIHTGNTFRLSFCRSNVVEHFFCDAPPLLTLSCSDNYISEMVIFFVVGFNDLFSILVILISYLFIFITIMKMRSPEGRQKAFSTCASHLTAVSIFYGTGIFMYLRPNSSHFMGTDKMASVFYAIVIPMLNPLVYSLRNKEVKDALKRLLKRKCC

[2] = molecular target: T2, OR7C1 (Homo sapiens, UniProt O76099, D296E/G302K/M297V/R299D/T295K/V126I); test: CRE-luciferase assay, HEK293T cells expressing OR7C1 (wild-type / modified C-terminus); assay type: cell-based; conditions: OR7C1 variant, 1 μM Ambermax
T2 construct: Improved functional expression of modified OR-genes containing the truncated, optimized C-terminus; expressed in transfected cells; host or cells: HEK293T stably expressing human RTP1S(V227I) and RTP2(L220R)
T2 sequence (O76099 with tags, fused parts or gaps V126I/T295K/D296E/M297V/R299D/G302K): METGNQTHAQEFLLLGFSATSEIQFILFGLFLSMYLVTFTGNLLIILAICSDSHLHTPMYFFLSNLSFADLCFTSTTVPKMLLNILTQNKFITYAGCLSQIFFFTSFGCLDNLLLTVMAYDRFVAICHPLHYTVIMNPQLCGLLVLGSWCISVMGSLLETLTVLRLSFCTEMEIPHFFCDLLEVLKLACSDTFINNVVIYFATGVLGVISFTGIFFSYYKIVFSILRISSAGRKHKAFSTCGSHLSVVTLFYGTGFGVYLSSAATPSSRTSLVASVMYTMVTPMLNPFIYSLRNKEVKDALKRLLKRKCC
Text: To test for possible variants of the sequence […]CC (SEQ ID NO: 86) leading to similar improved functional expression, different point mutations were introduced into the first 16 amino acids of this sequence (corresponding to […], SEQ ID NO: 10) and the variants were fused after the TM7 with OR7C1. […] The test concentrations were selected to fall into the range of partial activity of the wild-type sequence.

[3] = molecular target: T3, OR2T4 (Homo sapiens, UniProt Q8NH00, D328E/G331D/M330K); conditions: for % of the activation by the optimized sequence RNKEVKDALKRLLKRKCC: OR2T4 variant; for ligand identification in sulfur odorant screen: OR2T4 with optimized C-terminus SEQ ID NO: 86
T3 sequence (Q8NH00 with tags, fused parts or gaps D328E/M330K/G331D): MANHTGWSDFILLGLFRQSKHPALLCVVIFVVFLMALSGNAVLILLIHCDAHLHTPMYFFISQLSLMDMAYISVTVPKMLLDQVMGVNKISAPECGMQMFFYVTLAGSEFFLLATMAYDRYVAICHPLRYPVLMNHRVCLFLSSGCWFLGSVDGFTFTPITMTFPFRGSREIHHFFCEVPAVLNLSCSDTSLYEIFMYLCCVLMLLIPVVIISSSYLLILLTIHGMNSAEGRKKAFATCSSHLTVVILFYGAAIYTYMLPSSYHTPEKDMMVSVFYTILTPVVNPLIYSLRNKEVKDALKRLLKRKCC

[4] = 10 μM Cyclopentanethiol, 30 μM copper
[5] = 31 μM Cyclopentanethiol, 30 μM copper
[6] = 4 μM 2-methyl-3-tetrahydrofuranethiol
[7] = 8 μM 2-methyl-3-tetrahydrofuranethiol

Row | % of the activation by the optimized sequence RNKEVKDALKRLLKRKCC ([1]; 31 μM Hedione HC) | % of the activation by the optimized sequence RNKEVKDALKRLLKRKCC ([1]; 62.5 μM Hedione HC) | Compound | other results
1 | 0% | 0% | SEQ ID NO: 10 (RNKEVKDALKRLLKRK; source 1..16: note = C-terminal domain sequence) | % of the activation by the optimized sequence RNKEVKDALKRLLKRKCC [2]: 89.5%; % of the activation by the optimized sequence RNKEVKDALKRLLKRKCC [3, 4]: 25.3%; % of the activation by the optimized sequence RNKEVKDALKRLLKRKCC [3, 5]: 25.2%
2 | 230.04% | 143.71% | SEQ ID NO: 140 (RNKEVKDALKRLLKRKCCA; source 1..19: note = C-terminal domain sequence) | 
3 | 98.68% | 98.17% | SEQ ID NO: 139 (RNKEVKDALKRLLKRKCCP; source 1..19: note = C-terminal domain sequence) | 
4 | 298.48% | 274.09% | SEQ ID NO: 141 (RNKEVKDALKRLLKRKCCY; source 1..19: note = C-terminal domain sequence) | 
5 | 1032.2% | 676.0% | SEQ ID NO: 221 (RNKEVKKAIKRLFKRKCCRRR; source 1..21: note = C-terminal domain sequence) | % of the activation by the optimized sequence RNKEVKDALKRLLKRKCC [2]: 498.6%; % of the activation by the optimized sequence RNKEVKDALKRLLKRKCC [3, 6]: 103.1%; % of the activation by the optimized sequence RNKEVKDALKRLLKRKCC [3, 7]: 130.4%
6 | 349.2% | 242.5% | SEQ ID NO: 115 (RNKEVKKAIKRLLKRKCC; source 1..18: note = C-terminal domain sequence) | % of the activation by the optimized sequence RNKEVKDALKRLLKRKCC [3, 6]: 103.1%; % of the activation by the optimized sequence RNKEVKDALKRLLKRKCC [3, 7]: 115.2%

Continued, compound first:

Row | Compound | % of the activation by the optimized sequence RNKEVKDALKRLLKRKCC ([1]; 31 μM Hedione HC) | % of the activation by the optimized sequence RNKEVKDALKRLLKRKCC ([1]; 62.5 μM Hedione HC) | other results
7 | SEQ ID NO: 143 (RNKEVKDALKRLLKRKCCN; source 1..19: note = C-terminal domain sequence) | 137.13% | 91.94% | 
8 | SEQ ID NO: 137 (RNKEVKDALKRLLKRKCCM; source 1..19: note = C-terminal domain sequence) | 177.47% | 182.76% | 
9 | CCCCCC1C(=O)CCC1CC(=O)OC (centres unmarked) [Hedione, reference compound] |  |  | Comments on efficacy [1]: type only 1.75-; Detection threshold; concentration for 2-fold induction ([1]; changed C-term. SEQ ID NO: 86): 29 µM; EC50 ([1]; changed C-term. SEQ ID NO: 86): 58.3 µM; Fold-improvement potency [1]: >5; Fold-improvement threshold [1]: >9; Detection threshold; concentration for 2-fold induction ([1]; wild-type): (>>250) μM; EC50 ([1]; wild-type): > 250 µM
10 | SEQ ID NO: 145 (RNKEVKDALKRLLKRKCCK; source 1..19: note = C-terminal domain sequence) | 280.71% | 237.30% | 
11 | SEQ ID NO: 138 (RNKEVKDALKRLLKRKCCS; source 1..19: note = C-terminal domain sequence) | 176.99% | 75.63% | 
12 | SEQ ID NO: 198 (RNKEVKDALKRLLKRKC; source 1..17: note = C-terminal domain sequence) | 0% | 0% | % of the activation by the optimized sequence RNKEVKDALKRLLKRKCC [2]: 137.7%; % of the activation by the optimized sequence RNKEVKDALKRLLKRKCC [3, 4]: 37.7%; % of the activation by the optimized sequence RNKEVKDALKRLLKRKCC [3, 5]: 63.5%
13 | SEQ ID NO: 148: printed for RNKEVKDALKRLLKRKCRR in Table 6 | 181.2% | 189.0% | 
14 | SEQ ID NO: 151 (RNKEVKDALKRLLKRKCCRR; source 1..20: note = C-terminal domain sequence) | 240.6% | 229.5% | 
15 | CCCSSCCC [dipropyl disulfide, reference compound] |  |  | ligand identification in sulfur odorant screen [3]: good ligands
16 | CCCCCC1C(=O)CCC1CC(=O)OC (racemic) [Hedione HC, reference compound] |  |  | Comments on efficacy [1]: 4-fold lower; Detection threshold; concentration for 2-fold induction ([1]; changed C-term. SEQ ID NO: 86): 8.8 µM; EC50 ([1]; changed C-term. SEQ ID NO: 86): 18.3 µM; Fold-improvement potency [1]: 3.8; Fold-improvement threshold [1]: 11; Detection threshold; concentration for 2-fold induction ([1]; wild-type): 96 µM; EC50 ([1]; wild-type): 69 µM
17 | CC1OCCC1S (centres unmarked) [2-methyl-3-tetrahydrofuranthiol, reference compound] |  |  | ligand identification in sulfur odorant screen [3]: good ligands
18 | SEQ ID NO: 149 (RNKEVKDALKRLLKRKCRRR; source 1..20: note = C-terminal domain sequence) | 254.8% | 231.7% | % of the activation by the optimized sequence RNKEVKDALKRLLKRKCC [2]: 265.3%; % of the activation by the optimized sequence RNKEVKDALKRLLKRKCC [3, 6]: 108.0%; % of the activation by the optimized sequence RNKEVKDALKRLLKRKCC [3, 7]: 135.7%
19 | SEQ ID NO: 134 (RNKEVKDALKRLLKRKCCC; source 1..19: note = C-terminal domain sequence) | 168.91% | 121.37% | 
20 | SEQ ID NO: 144 (RNKEVKDALKRLLKRKCCD; source 1..19: note = C-terminal domain sequence) | 86.54% | 56.54% | 
21 | SEQ ID NO: 142 (RNKEVKDALKRLLKRKCCH; source 1..19: note = C-terminal domain sequence) | 142.62% | 129.19% | 
22 | SEQ ID NO: 133 (RNKEVKDALKRLLKRKCRR; source 1..19: note = C-terminal domain sequence) |  |  | % of the activation by the optimized sequence RNKEVKDALKRLLKRKCC [2]: 188.9%; % of the activation by the optimized sequence RNKEVKDALKRLLKRKCC [3, 6]: 101.4%; % of the activation by the optimized sequence RNKEVKDALKRLLKRKCC [3, 7]: 110.0%
23 | SEQ ID NO: 220 (RNKEVKKAIKRLLKRKCCRRR; source 1..21: note = C-terminal domain sequence) | 1092.9% | 922.2% | % of the activation by the optimized sequence RNKEVKDALKRLLKRKCC [3, 6]: 76.6%; % of the activation by the optimized sequence RNKEVKDALKRLLKRKCC [3, 7]: 61.9%
24 | SEQ ID NO: 219 (RNKEVKDALKRLLKRKCCRRRR; source 1..22: note = C-terminal domain sequence) | 244.3% | 239.6% | 
25 | SEQ ID NO: 136 (RNKEVKDALKRLLKRKCCL; source 1..19: note = C-terminal domain sequence) | 533.84% | 189.64% | 
26 | SEQ ID NO: 147 (RNKEVKDALKRLLKRKCCG; source 1..19: note = C-terminal domain sequence) | 394.57% | 300.08% | 
27 | SEQ ID NO: 146 (RNKEVKDALKRLLKRKCCR; source 1..19: note = C-terminal domain sequence) | 619.88% | 248.52% | 
28 | SEQ ID NO: 135 (RNKEVKDALKRLLKRKCCF; source 1..19: note = C-terminal domain sequence) | 207.32% | 127.22% | 
29 | SEQ ID NO: 92 (RNKEVKEALKRLLKRKCC; source 1..18: note = C-terminal domain sequence) |  |  | % of the activation by the optimized sequence RNKEVKDALKRLLKRKCC [2]: 81.3%
30 | Phe Phe |  |  | % of the activation by the optimized sequence RNKEVKDALKRLLKRKCC [2]: 103.8%
